The source of these data is US20220380456A1 (UNITED KINGDOM RESEARCH AND INNOVATION, published 2022).

For orientation: koff means the first-order rate constant of dissociation. In general, kon refers to a measure of how fast the partners come together. Read a low kon as slower complex formation. As a reminder, the Kd is the constant that tells how readily two partners part at equilibrium. Low values mean a tighter complex, high ones a looser complex.

Assay [1] concerns the target T1, His6-TEV-MSP1D1 (CA15914) (human Apo A-I derived, engineered, biotinylated with EZ-link NHS-Biotin for the BLI experiment only).
T1 construct: Membrane scaffold protein; The entry holds the 6xHis tag, the TEV cleavage site and MSP1D1; Tested in Apo-state (lipid free) and in Nanodisc-state (POPC nanodisc, two MSP1D1 per nanodisc)
T1 chain: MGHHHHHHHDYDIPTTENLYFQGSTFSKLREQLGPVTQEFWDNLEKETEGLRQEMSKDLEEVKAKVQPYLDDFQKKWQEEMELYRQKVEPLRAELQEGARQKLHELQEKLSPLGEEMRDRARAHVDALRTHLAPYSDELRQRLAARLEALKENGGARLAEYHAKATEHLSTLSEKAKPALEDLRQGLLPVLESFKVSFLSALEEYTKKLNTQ
In words: BLI (OctetRED96), biotinylated Apo MSP1D1 on streptavidin sensors, 1:2 binding model.

The target of assay [2] is T1, His6-TEV-MSP1D1 (CA15914). In words: BLI (OctetRED96), biotinylated MSP1D1 (Apo-state) on streptavidin sensors, 1:2 binding model, 30 °C; biotinylated Apo-state MSP1D1 on the SA sensor; 30 C; 1:2 binding model.
Assay [3] has as its target T2, His6-TEV-MSP2N2 (CA15915) (human Apo A-I derived, engineered, UniProt P02647 79-267, limits assumed).
T2 construct: Membrane scaffold protein; The entry holds the 6xHis tag, the TEV cleavage site and MSP2N2; Tested in Apo-state, in Nanodisc-state, and as the belt of nanodiscs loaded with GABAAR-β3
In words: ELISA, purified MegaBody on coated MSP (Apo- or Nanodisc-state) vs non-coated wells, A405. A general note: In an ELISA, binding on a coated surface is turned into a signal by an enzyme label.

For assay [4], the target named is T1, His6-TEV-MSP1D1 (CA15914). Described as above.
Assay [5] has as its target T3, MSP1E3D1 (human Apo A-I derived, engineered).
T3 construct: also called MSP1E1D3 MSP variant
T3 chain: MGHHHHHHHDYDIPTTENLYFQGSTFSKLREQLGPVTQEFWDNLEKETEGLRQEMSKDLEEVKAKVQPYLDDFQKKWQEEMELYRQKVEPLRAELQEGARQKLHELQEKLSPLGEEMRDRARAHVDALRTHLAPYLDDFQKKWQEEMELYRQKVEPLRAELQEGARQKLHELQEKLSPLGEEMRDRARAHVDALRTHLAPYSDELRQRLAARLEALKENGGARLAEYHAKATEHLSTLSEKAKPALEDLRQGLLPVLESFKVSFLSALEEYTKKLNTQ
In words: ELISA on coated MSP variants, n=3.

In assay [6] the target is T2, His6-TEV-MSP2N2 (CA15915). Briefly: ELISA, purified MegaBody 200 nM on coated MSP (1 µg/mL in 100 µL, Apo- and Nanodisc-state), EPEA-tag detection, OD405 after 1 h.
The target of assay [7] is T1, His6-TEV-MSP1D1 (CA15914). The description is as above.

B1: MbNbF3^c7HopQ MegaBody (CA15192) (other)
chain: QVQLVESGGGLVQTKTTTSVIDTTNDAQNLLTQAQTIVNTLKDYCPILIAKSSSSNGGTNNANTPSWQTAGGGKNSCATFGAEFSAASDMINNAQKIVQETQQLSANQPKNITQPHNLNLNSPSSLTALAQKMLKNAQSQAEILKLANQVESDFNKLSSGHLKDYIGKCDASAISSANMTMQNQKNNWGNGCAGVEETQSLLKTSAADFNNQTPQINQAQNLANTLIQELGNNTYEQLSRLLTNDNGTNSKTSAQAINQAVNNLNERAKTLAGGTTNSPAYQATLLALRSVLGLWNSMGYAVICGGYTKSPGENNQKDFHYTDENGNGTTINCGGSTNSNGTHSYNGTNTLKADKNVSLSIEQYEKIHEAYQILSKALKQAGLAPLNSKGEKLEAHVTTSKYGSLRLSCAASGSGFGPNVMGWYRQAPGKRRELVATINRIGNINYGDSVKGRFTLSREIAVNTVYLQMNSLKPEDAANYYCYAAKYGVDYWGKGTQVTVSSHHHHHHEPEA
notes: MegaBody: c7HopQ scaffold inserted in the first β-turn of Nanobody MP1521_F3; Entry includes 6xHis and EPEA tags; also called MbF3^c7HopQ MegaBody
Turning to B1, in assay [1], the koff came to 0.00103 s⁻¹ and the on-rate constant (kon) worked out at 44000 M⁻¹ s⁻¹. The same molecule registered an equilibrium dissociation constant (Kd) in assay [2] of 0.0235 µM. For the same molecule, the “fold ELISA signal over no MSP” value in assay [3] is no less than 4 fold. Further, the “fold ELISA signal over no MSP” value in assay [4] was no less than 4 fold. Further, in assay [5], the binding result is recorded as “binds”.

B2: MegaBody MbNb25^c7HopQ against GABAAR-β3 (other)
chain: QVQLVESGGGLVQTKTTTSVIDTTNDAQNLLTQAQTIVNTLKDYCPILIAKSSSSNGGTNNANTPSWQTAGGGKNSCATFGAEFSAASDMINNAQKIVQETQQLSANQPKNITQPHNLNLNSPSSLTALAQKMLKNAQSQAEILKLANQVESDFNKLSSGHLKDYIGKCDASAISSANMTMQNQKNNWGNGCAGVEETQSLLKTSAADFNNQTPQINQAQNLANTLIQELGNNTYEQLSRLLTNDNGTNSKTSAQAINQAVNNLNERAKTLAGGTTNSPAYQATLLALRSVLGLWNSMGYAVICGGYTKSPGENNQKDFHYTDENGNGTTINCGGSTNSNGTHSYNGTNTLKADKNVSLSIEQYEKIHEAYQILSKALKQAGLAPLNSKGEKLEAHVTTSKYGSLRLSCAASGHTFNYPIMGWFRQAPGKEREFVGAISWSGGSTSYADSVKDRFTISRDNAKNTVYLEMNNLKPEDTAVYYCAAKGRYSGGLYYPTNYDYWGQGTQVTVSSHHHHHHEPEA
notes: MegaBody derived from Nb25 with the c7HopQ scaffold
For B2, the binding result in assay [6] was “no binding (tested: 200 nM)”; in assay [7], “no binding (tested: 200 nM)”; in assay [5] it was “no binding”.
